Test results taken from patent US20260242735A1 (UNIVERSIT T BASEL, published 2026).

B1: Refmab #4 (antibody, human IgG1, V domains shown)
VH: QVQLVQSGAEVKKPGESVKVSCKASGYTFTNYGMNWVKQAPGQGLEWMGWINTYTGEPTYADKFQGRVTMTTDTSTSTAYMEIRNLGGDDTAVYYCARWSWSDGYYVYFDYWGQGTSVTVSS
VL: DIVMTQSPDSLTVSLGERTTINCKSSQSVLDSSTNKNSLAWYQQKPGQPPKLLLSWASTRESGIPDRFSGSGSGTDFTLTIDSPQPEDSATYYCQQSAHFPITFGQGTRLEIK
B2: Refmab #1 (antibody, human IgG1, V domains shown)
VH: EVQLVQSGAEVKKPGSSVKVSCKASGYTITDSNIHWVRQAPGQSLEWIGYIYPYNGGTDYNQKFKNRATLTVDNPTNTAYMELSSLRSEDTAFYYCVNGNPWLAYWGQGTLVTVSS
VL: DIQLTQSPSTLSASVGDRVTITCRASESLDNYGIRFLTWFQQKPGKAPKLLMYAASNQGSGVPSRFSGSGSGTEFTLTISSLQPDDFATYYCQQTKEVPWSFGQGTKVEVK
notes: also called hP67.6; Absolute Antibody Cat. No. Ab00283-10.0
B3: Refmab #3 (antibody, human IgG1, V domains shown)
VH: QVQLVQSGAEVKKPGSSVKVSCKASGYTFTDYNMHWVRQAPGQGLEWIGYIYPYNGGTGYNQKFKSKATITADESTNTAYMELSSLRSEDTAVYYCARGRPAMDYWGQGTLVTVSS
VL: DIQMTQSPSSLSASVGDRVTITCRASESVDNYGISFMNWFQQKPGKAPKLLIYAASNQGSGVPSRFSGSGSGTDFTLTISSLQPDDFATYYCQQSKEVPWTFGQGTKVEIK

Tests used:
Test in all cases: BLI Octet, IgG captured on AHC, CD33 analyte;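 note: CD33 variants and wild type run as analyte at 5, 50 and 500 nM, 700 s association then 1200 s dissociation, buffer-only reference subtracted, global 1:1 fit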
[1] = target: human CD33 extracellular region W22D (human, UniProt P20138 18-259)
[2] = target: human CD33 extracellular region W22R (human, UniProt P20138 18-259)
Sequence of human CD33 extracellular region W22R (P20138 other isoform, or with tags, fused parts or gaps W22R W22R): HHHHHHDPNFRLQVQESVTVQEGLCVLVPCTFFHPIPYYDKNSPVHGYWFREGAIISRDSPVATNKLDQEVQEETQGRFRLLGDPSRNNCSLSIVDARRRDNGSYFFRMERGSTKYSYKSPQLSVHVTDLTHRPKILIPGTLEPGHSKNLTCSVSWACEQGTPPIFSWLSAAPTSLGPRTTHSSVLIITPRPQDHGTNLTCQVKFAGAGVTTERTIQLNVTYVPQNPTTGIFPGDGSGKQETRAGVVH

[3] = target: human CD33 extracellular region F21H (human, UniProt P20138 22-259)
Sequence of human CD33 extracellular region F21H (P20138 other isoform, or with tags, fused parts or gaps F21H F21H): as the sequence (P20138 other isoform, or with tags, fused parts or gaps W22R W22R) above, with F10H, R11W counted along it

[4] = target: human CD33 extracellular region N100Q (human, UniProt P20138 18-259)
Sequence of human CD33 extracellular region N100Q (P20138 other isoform, or with tags, fused parts or gaps N100Q N100Q): as the sequence (P20138 other isoform, or with tags, fused parts or gaps W22R W22R) above, with R11W, N89Q counted along it

[5] = target: human CD33 extracellular region Y50H (human, UniProt P20138 18-259)
Sequence of human CD33 extracellular region Y50H (P20138 other isoform, or with tags, fused parts or gaps Y50H Y50H): as the sequence (P20138 other isoform, or with tags, fused parts or gaps W22R W22R) above, with R11W, Y39H counted along it

[6] = target: human CD33 extracellular region F21N (human, UniProt P20138 22-259)
Sequence of human CD33 extracellular region F21N (P20138 other isoform, or with tags, fused parts or gaps F21N F21N): as the sequence (P20138 other isoform, or with tags, fused parts or gaps W22R W22R) above, with F10N, R11W counted along it

[7] = target: human CD33 extracellular region Y50D (human, UniProt P20138 18-259)
Sequence of human CD33 extracellular region Y50D (P20138 other isoform, or with tags, fused parts or gaps Y50D Y50D): as the sequence (P20138 other isoform, or with tags, fused parts or gaps W22R W22R) above, with R11W, Y39D counted along it

[8] = target: human CD33 extracellular region F43S (human, UniProt P20138 18-259)
Sequence of human CD33 extracellular region F43S (P20138 other isoform, or with tags, fused parts or gaps F43S F43S): as the sequence (P20138 other isoform, or with tags, fused parts or gaps W22R W22R) above, with R11W, F32S counted along it

[9] = target: human CD33 extracellular region W22K (human, UniProt P20138 18-259)
Sequence of human CD33 extracellular region W22K (P20138 other isoform, or with tags, fused parts or gaps W22K W22K): as the sequence (P20138 other isoform, or with tags, fused parts or gaps W22R W22R) above, with R11K counted along it

[10] = target: human CD33 extracellular region Q24R (human, UniProt P20138 18-259)
Sequence of human CD33 extracellular region Q24R (P20138 other isoform, or with tags, fused parts or gaps Q24R Q24R): as the sequence (P20138 other isoform, or with tags, fused parts or gaps W22R W22R) above, with R11W, Q13R counted along it

[11] = target: human CD33 extracellular region F21S (human, UniProt P20138 22-259)
Sequence of human CD33 extracellular region F21S (P20138 other isoform, or with tags, fused parts or gaps F21S F21S): as the sequence (P20138 other isoform, or with tags, fused parts or gaps W22R W22R) above, with F10S, R11W counted along it

[12] = target: human CD33 extracellular region P48F (human, UniProt P20138 18-259)
[13] = target: human CD33 extracellular region N20K (human, UniProt P20138 21-259)
Sequence of human CD33 extracellular region N20K (P20138 other isoform, or with tags, fused parts or gaps N20K N20K): as the sequence (P20138 other isoform, or with tags, fused parts or gaps W22R W22R) above, with N9K, R11W counted along it

[14] = target: human CD33 extracellular region Y50K (human, UniProt P20138 18-259)
Sequence of human CD33 extracellular region Y50K (P20138 other isoform, or with tags, fused parts or gaps Y50K Y50K): as the sequence (P20138 other isoform, or with tags, fused parts or gaps W22R W22R) above, with R11W, Y39K counted along it

[15] = target: human CD33 extracellular region H45Y (human, UniProt P20138 18-259)
Sequence of human CD33 extracellular region H45Y (P20138 other isoform, or with tags, fused parts or gaps H45Y H45Y): as the sequence (P20138 other isoform, or with tags, fused parts or gaps W22R W22R) above, with R11W, H34Y counted along it

[16] = target: human CD33 extracellular region F21S_W22R (human, UniProt P20138 23-259)
[17] = target: human CD33 extracellular region Y50E (human, UniProt P20138 18-259)
[18] = target: human CD33 extracellular region F21M (human, UniProt P20138 22-259)
Sequence of human CD33 extracellular region F21M (P20138 other isoform, or with tags, fused parts or gaps F21M F21M): as the sequence (P20138 other isoform, or with tags, fused parts or gaps W22R W22R) above, with F10M, R11W counted along it

[19] = target: human CD33 extracellular region N20H (human, UniProt P20138 21-259)
[20] = target: human CD33 extracellular region P48S (human, UniProt P20138 18-259)
[21] = target: human CD33 extracellular region N20G (human, UniProt P20138 21-259)
[22] = target: human CD33 extracellular region N20D (human, UniProt P20138 21-259)
Sequence of human CD33 extracellular region N20D (P20138 other isoform, or with tags, fused parts or gaps N20D N20D): as the sequence (P20138 other isoform, or with tags, fused parts or gaps W22R W22R) above, with N9D, R11W counted along it

[23] = target: human CD33 extracellular region W22E (human, UniProt P20138 18-259)
Sequence of human CD33 extracellular region W22E (P20138 other isoform, or with tags, fused parts or gaps W22E W22E): as the sequence (P20138 other isoform, or with tags, fused parts or gaps W22R W22R) above, with R11E counted along it

[24] = target: T1, human CD33 extracellular region, wild type (human, UniProt P20138 18-259)
T1 construct: also called WT; CD33 wt
T1 sequence (P20138 other isoform, or with tags, fused parts or gaps): as the sequence (P20138 other isoform, or with tags, fused parts or gaps W22R W22R) above, with R11W counted along it

[25] = target: human CD33 extracellular region Y50L (human, UniProt P20138 18-259)
Sequence of human CD33 extracellular region Y50L (P20138 other isoform, or with tags, fused parts or gaps Y50L Y50L): as the sequence (P20138 other isoform, or with tags, fused parts or gaps W22R W22R) above, with R11W, Y39L counted along it

[26] = target: human CD33 extracellular region Y50R (human, UniProt P20138 18-259)
[27] = target: human CD33 extracellular region F44S (human, UniProt P20138 18-259)
[28] = target: human CD33 extracellular region Y50H_Y49H (human, UniProt P20138 18-259)
[29] = target: human CD33 extracellular region W22T (human, UniProt P20138 18-259)
[30] = target: human CD33 extracellular region F44P (human, UniProt P20138 18-259)
Sequence of human CD33 extracellular region F44P (P20138 other isoform, or with tags, fused parts or gaps F44P F44P): as the sequence (P20138 other isoform, or with tags, fused parts or gaps W22R W22R) above, with R11W, F33P counted along it

[31] = target: human CD33 extracellular region P48D (human, UniProt P20138 18-259)

Row | Binder | % WT binding [1] | % WT binding [2] | % WT binding [3] | % WT binding [4] | % WT binding [5] | % WT binding [6] | % WT binding [7] | % WT binding [8] | % WT binding [9] | % WT binding [10] | % WT binding [11] | % WT binding [12] | % WT binding [13] | % WT binding [14] | % WT binding [15] | % WT binding [16] | % WT binding [17] | % WT binding [18] | % WT binding [19] | % WT binding [20] | other results
1 | B1 | 104% | 82.8% | 108% | 114% | 28% | 83% | 0% | 80% | 113% | 102% | 78.3% | 9.11% | 102% | 0% | 69.3% | 110% | 16% | 80% | 104% | 21.8% | % WT binding [21]: 115%; % WT binding [22]: 91.3%; % WT binding [23]: 82.8%; % WT binding [24]: 100%; % WT binding [25]: 25.3%; % WT binding [26]: 0%; % WT binding [27]: 84.6%; % WT binding [28]: 0%; % WT binding [29]: 87.9%; % WT binding [30]: 87.4%; % WT binding [31]: 5.75%
2 | B2 | 0% | 26.4% | 0% | 107% | 104% | 0% | 71.5% | 104% | 0% | 67.9% | 0% | 76.2% | 0% | 101% | 55% | 0% | 101% | 0% | 67% | 79.5% | % WT binding [21]: 0%; % WT binding [22]: 0%; % WT binding [23]: 26.4%; % WT binding [24]: 100%; % WT binding [25]: 76.1%; % WT binding [26]: 73.3%; % WT binding [27]: 63.9%; % WT binding [28]: 76.4%; % WT binding [29]: 15%; % WT binding [30]: 0%; % WT binding [31]: 71.9%
3 | B3 | 0% | 0% | 0% | 124% | 111% | 0% | 71% | 64.8% | 0% | 88.4% | 0% | 74.3% | 0% | 122% | 35.1% | 0% | 120% | 0% | 0% | 74% | % WT binding [21]: 0%; % WT binding [22]: 0%; % WT binding [23]: 0%; % WT binding [24]: 100%; % WT binding [25]: 74.4%; % WT binding [26]: 70.5%; % WT binding [27]: 39%; % WT binding [28]: 84.4%; % WT binding [29]: 3.39%; % WT binding [30]: 0%; % WT binding [31]: 76.4%
